Experimental data from article PMC9674691.
Each block holds one substance with its values, some of them ahead of it.

Tests used:
Cys17 = Cys17 (UniProt position 17, AGYDGCGLCLA); assay: NMR; conditions: 25 °C (general statement in the NMR methods), 100 mM NaCl, 50 mM Tris, buffer-exchanged at each pH, Free protein. Reduced monomer is inferred from Cbeta shifts of about 25.5-29.5 ppm, typical of free thiol. The presence of a reductant in the titration buffer is not stated.
Cys80 = Cys80 (UniProt position 80, VGMASCWEFVE); assay: NMR; conditions: 25 °C (general statement in the NMR methods), 100 mM NaCl, 50 mM Tris, buffer-exchanged at each pH, Free protein. Reduced monomer is inferred from Cbeta shifts of about 25.5-29.5 ppm, typical of free thiol. The presence of a reductant in the titration buffer is not stated.
[1] = target: biotinylated NmeHNH (Neisseria meningitidis) (UniProt C9X1G5); assay: BLI; biotinylated NmeHNH on streptavidin biosensors, Acr as analyte, 37 °C, 20 mM Tris, 100 mM NaCl, pH 7.4 without DTT; global 1:1 fit
[2] = target: biotinylated NmeHNH (Neisseria meningitidis) (UniProt C9X1G5); assay: BLI; biotinylated NmeHNH on streptavidin biosensors, Acr as analyte, 37 °C, 20 mM Tris, 100 mM NaCl, pH 7.4 with 1 mM DTT; global 1:1 fit
[3] = target: NmeAcrIIC1 (AcrIIC1 from Neisseria meningitidis), reduced form (Neisseria meningitidis); assay: SEC; NmeAcrIIC1 alone, no reductant in the buffer or excess H2O2 added to the monomer eluent
[4] = target: BoeAcrIIC1 (AcrIIC1 ortholog from Brackiella oedipodis) (Brackiella oedipodis); assay: SEC + other: 1H NMR spectra; AcrIIC1 ortholog alone, oxidizing condition

Substance: Anti-CRISPR protein AcrIIC1 (NmeAcrIIC1) (Neisseria meningitidis)
pKa (Cys17): 8.920 ± 0.158
pKa (Cys80): 8.258 ± 0.218

Substance: oxidized NmeAcrIIC1 dimer (natural protein)
BLI response [1]: < 0.05

Other lines, results leading:

Kd [1]: 10.8 nM
Kd [2]: 12.7 nM
Substance: AcrIIC1-SS (NmeAcrIIC1 with Cys17 and Cys80 substituted with serine) (natural protein)

stoichiometry N [3]: 2
Kd [2]: 1.78 nM
Substance: NmeAcrIIC1 (AcrIIC1 from Neisseria meningitidis), reduced form (natural protein)

stoichiometry N [4]: 2
Substance: BoeAcrIIC1 (AcrIIC1 ortholog from Brackiella oedipodis) (natural protein)
